Data published in the RNAGym collection of RNA variant scans (doi:10.7554/elife.80360).

B1: CPEB3 Ribozyme (parent)
chain: GGGGGCCACAGCAGAAGCGUUCACGUCGCGGCCCCUGUCAGAUUCUGGUGAAUCUGCGAAUUCUGCUGU

Variants of: B1
Test: self-cleavage, relative activity (ratio to wild type); higher = more cleavage; co-transcriptional

Variant	self-cleavage
C7U C32A	0.436
C7U C32G	0.148
A8C C66U	1.02
A8C C66G	0.871
A8C C63U	0.972
A8C C63A	0.76
A8C G17A	0.269
A8C G17C	0.165
A8C G17U	0.444
C7U U46C	0.973
A8C C35G	0.421
A8C C35U	0.976
A8C A16U	0.843
A8C A16G	0.962
A8C A16C	0.325
C7U C63U	0.948
C7U C63A	0.577
C7U G41U	0.692
C7U G41A	0.748
C7U U44C	0.829
A8C U38C	0.9

Variant	self-cleavage
A8G C27U	0.0734
A8G C27A	0.0861
A8G C29U	0.761
A8G C29G	0.496
A8G C29A	0.647
A8C G48C	1.02
A8C G48U	1.02
A8C A23G	0.997
A8C A23U	1.01
A8C A23C	0.907
A8G C66A	0.249
A8G C66U	0.5
A8G C66G	0.294
A8C C9U	1.01
A8C C9G	0.922
A8C C9A	1.01
C7U U38C	0.819
C7U U38G	0.193
C7U U38A	0.774
A8G A10U	0.69
A8C C34U	0.972

Variant	self-cleavage
A8C C34A	0.834
A8C C34G	0.859
C7U C57A	0.35
C7U C57U	0.305
A8C C27A	0.555
A8C C27G	0.112
C7U G11U	0.715
A8G C9G	0.915
A8G C9U	0.954
A8G A40G	0.723
A8G A40U	0.333
A8G A40C	0.103
A8C C45A	1.01
A8C C45U	1.04
A8C G31U	0.664
A8C G31C	0.267
A8C U61C	0.776
A8C U61G	0.937
A8C U20C	0.166
A8C U20A	0.114
A8G G30A	0.861

Variant	self-cleavage
A8G G30U	0.335
A8G G30C	0.602
A8C G68U	1.02
A8C G68C	1
A8G A13U	0.0712
A8C C54U	1
A8C C54G	0.876
A8C G14C	0.528
A8C G14A	0.669
A8C A60U	0.413
A8C A60G	0.953
A8C A60C	0.382
A8G A42U	0.622
A8G A42G	0.536
A8G A42C	0.59
C7U G19A	0.113
C7U G19U	0.247
C7U G19C	0.155
C7U G17U	0.243
C7U G17C	0.122
